Laboratory results: patent US20230038521A1 (INSTITUTE OF SCIENCE TOKYO, published 2023)

Biological target: T1, human HMGB1 protein (human, UniProt P09429 1-215)
T1 construct: Non-denatured protein, used as analyte in SPR and added to neurons in the MARCKS phosphorylation assay; also called High Mobility Group Box 1
T1 sequence (looked up): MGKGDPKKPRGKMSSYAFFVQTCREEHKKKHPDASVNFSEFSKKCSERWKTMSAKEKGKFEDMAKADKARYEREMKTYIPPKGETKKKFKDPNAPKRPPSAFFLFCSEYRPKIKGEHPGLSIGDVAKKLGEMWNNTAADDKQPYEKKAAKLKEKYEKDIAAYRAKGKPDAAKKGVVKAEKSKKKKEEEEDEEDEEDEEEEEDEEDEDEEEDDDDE
Assay: SPR, Biacore T100, antibody immobilized on the chip, human HMGB1 as analyte
Method: The interaction between the human monoclonal antibody group of the present invention and human HMGB1 protein was compared and examined using SPR. Specifically, using a sensor chip on which each human monoclonal antibody of the present invention was immobilized and human HMGB1 protein as an analyte, the interaction was measured over time with a surface plasmon resonance sensor (“Biacore T100”, manufactured by GE healthcare), to calculate an equilibrium dissociation constant (KD value) as an index of the antibody affinity.

B1: monoclonal antibody #213-001 (antibody, human IgG1, kappa, V domains shown)
VH: EVQLVQSGAEVKKPGSSVKVSCKASGGTFSSYAISWVRQAPGQGLEWMGGIIPIFGRANYAQKFQGRVTITADESTSTAYMELSSLRSEDTAVYYCASLVTDYWGQGTLVTVSS
VL: DIQMTQSPSSLSASTGDRVTITCRASQGISSYLAWYQQKPGKAPKLLIYAASTLQSGVPSRFSGSGSGTDFTLTISSLQPEDFATYYCQQANSFPITFGQGTRLEIKT
notes: Human IgG from the ADLib system; kappa light chain
  Kd: 5.54 nM

B2: monoclonal antibody #127 (antibody, human IgG1, kappa, V domains shown)
VH: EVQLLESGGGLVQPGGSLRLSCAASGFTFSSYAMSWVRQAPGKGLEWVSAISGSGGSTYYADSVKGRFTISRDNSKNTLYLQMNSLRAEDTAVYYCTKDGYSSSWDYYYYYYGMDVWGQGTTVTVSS
VL: DIQMTQSPSSLSASVGDRVTITCRASQSVSSYLAWYQQKPGKAPKLLIYEASNLQAGVPSRFSGSGSGTDFTLTINSLQPEDFATYYCLQHNSNPLTFGQGTKLEIKT
notes: Human IgG from the ADLib system (DT40 cell library); kappa light chain
  Kd: 0.0217 nM
